Measurements as given in patent publication US20230322880A1 (MEDIKINE, published 2023).
Where no end group is shown, it is not given here.

Target: T1, IL-7Rα-Fc (CD127 protein, Fc tag; ECD 21-236; ACRObiosystems, Inc, Cat. #ILA-H5258) (human, UniProt P16871 21-236)
T1 construct: range 21-236; also called hu-IL-7Rα subunit; not shown: Fc tag of the purchased protein
T1 sequence (looked up): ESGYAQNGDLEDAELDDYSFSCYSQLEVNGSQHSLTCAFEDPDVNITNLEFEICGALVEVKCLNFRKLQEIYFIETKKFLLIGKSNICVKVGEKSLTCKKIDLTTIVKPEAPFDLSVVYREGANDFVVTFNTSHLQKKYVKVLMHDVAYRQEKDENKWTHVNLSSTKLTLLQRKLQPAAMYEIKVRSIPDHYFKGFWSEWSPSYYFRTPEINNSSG
Assay: competition binding ELISA, plate-coated receptor, biotinylated reference peptide::NA-HRP tracer
Description: Binding of the synthetic IL-7Rα ligands to IL-7Rα was evaluated using a competition binding ELISA. Microtiter plate wells were coated with IL-7Rα-Fc (CD127 protein, Fc tag; ECD 21-236; ACRObiosystems, Inc, Cat. #ILA-H5258) at 1 μg/mL; 50 μL per well in PBS for at least 1 h. The plate was washed once with wash buffer (200 μL, PBS containing 0.05% Tween®-20 (Sigma). Wells were blocked with blocking buffer (PBS containing 1% BSA (BSA Fraction V; VWR Cat. No. 97061-416) for 1 h. A serial dilution of the peptides was prepared, at twice the final concentration, in assay buffer (PBS containing 0.5% BSA and 0.05% Tween®-20) in a 96-well polypropylene plate. A terminal biotinylated form of the reference IL-7Rα peptide ligand having SEQ ID NO: 300 ([…]) was used to make a precomplex with NeutrAvidin-HRP (NA-HRP; ThermoFisher Cat. No. 31030) (Precomplex referred to as bnPeptide::NA-HRP). The bnPeptide::NA-HRP precomplex was prepared by mixing 1.5 μL 100 μM biotinylated peptide, 2 μL NA-HRP and 11.5 PBS and incubated at 4° C. for at least 45 min. After blocking the wells, the plate was washed with a plate washer and serial dilutions of the peptides were added (50 μL/well) and the plate was incubated at 4° C. for 1 h on a plate shaker. […] Fifty (50) μL of a solution (Surmodics Cat. #LSTP-0100-0) was then added and the plate read at 450 nm. […]

B1: IL-7Rαγc ligand having SEQ ID NO: 30 (peptide)
peptide: GWGIPWCTLDPGSLQCAWLGKHGGGGSGGVVCQDWEGVELCWQGG
modifications: disulfide (positions not given here); also: two disulfide bridges, pairing not given here
B1: binds.
